From publication PMC8496732, “RAB33B recruits the ATG16L1 complex to the phagophore via a noncanonical RAB binding protein” (Autophagy, 2020)
Numbering of substitutions follows the chain as printed. Numbers in names are those of the source.

T1: RAB33B wild type, 6xHis, labeled with Tide Fluor 3 (human, UniProt Q9H082 1-229, labeled with Tide Fluor 3 (TF3) maleimide)
T1 construct: RAB33B, human; Loaded with GppNHp or GDP by nucleotide exchange; The crystal construct is 30–218; also called WT^GppNHp; WT^GDP
T1 sequence (looked up): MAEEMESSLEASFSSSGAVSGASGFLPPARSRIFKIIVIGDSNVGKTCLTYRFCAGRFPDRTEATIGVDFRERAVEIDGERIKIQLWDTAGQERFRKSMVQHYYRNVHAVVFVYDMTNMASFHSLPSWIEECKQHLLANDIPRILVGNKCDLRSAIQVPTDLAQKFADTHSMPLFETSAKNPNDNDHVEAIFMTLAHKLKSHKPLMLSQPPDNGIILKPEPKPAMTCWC

T2: RAB33B K35A, 6xHis, labeled with Tide Fluor 3 (human, UniProt Q9H082 1-229, K35A, labeled with Tide Fluor 3 (TF3) maleimide)
T2 construct: RAB33B, human, K35A; also called K35A^GppNHp
T2 sequence (looked up): T1 sequence (looked up) with K35A

T3: RAB33B F95A, 6xHis, labeled with Tide Fluor 3 (human, UniProt Q9H082 1-229, F95A, labeled with Tide Fluor 3 (TF3) maleimide)
T3 construct: RAB33B, human, F95A; also called F95A^GppNHp
T3 sequence (looked up): T1 sequence (looked up) with F95A

T4: RAB33B I66A, 6xHis, labeled with Tide Fluor 3 (human, UniProt Q9H082 1-229, I66A, labeled with Tide Fluor 3 (TF3) maleimide)
T4 construct: RAB33B, human, I66A; also called I66A^GppNHp
T4 sequence (looked up): T1 sequence (looked up) with I66A

B1: ATG16L1(141–265) wild type, expressed separately (domain or fragment, UniProt Q8C0J2 141-265, looked up)
chain: LETNCLDLRTKLQDLEVANQTLKDEYDALQITFTALEEKLRKTTEENQELVTRWMAEKAQEANRLNAENEKDSRRRQARLQKELAEAAKEPLPVEQDDDIEVIVDETSDHTEETSPVRAVSRAAT
notes: pOPIN vector with GST tag; also called WT
B2: ATG16L1(141–265) N206A (domain or fragment, UniProt Q8C0J2 141-265, looked up)
chain: B1 chain with N66A
B3: ATG16L1(141–265) N209A (domain or fragment, UniProt Q8C0J2 141-265, looked up)
chain: B1 chain with N69A
B4: ATG16L1(141–265) N206A,N209A (domain or fragment, UniProt Q8C0J2 141-265, looked up)
chain: B1 chain with N66A, N69A

Experiments:
Conditions in all cases: both partners purified
[1] = target: T1, RAB33B wild type, 6xHis, labeled with …; assay: MST; TF3-labeled RAB33B at 10 μM, GDP-bound; unlabeled ATG16L1(141–265) titrated from 400 μM to 12 nM; 20 mM HEPES pH 7.2, 25 mM NaCl, 2 mM DTE, 2 mM MgCl2, 0.05% Tween 20, 10 µM GDP
[2] = target: T2, RAB33B K35A, 6xHis, labeled with Tide …; assay: MST; TF3-labeled RAB33B at 10 μM, GppNHp-bound; unlabeled ATG16L1(141–265) titrated from 400 μM to 12 nM; 20 mM HEPES pH 7.2, 25 mM NaCl, 2 mM DTE, 2 mM MgCl2, 0.05% Tween 20, 10 µM GppNHp
[3] = target: T1, RAB33B wild type, 6xHis, labeled with …; assay: as above
[4] = target: T3, RAB33B F95A, 6xHis, labeled with Tide …; assay: as above
[5] = target: T4, RAB33B I66A, 6xHis, labeled with Tide …; assay: as above

| Binder | Kd [1] | Kd [2] | Kd [3] | Kd [4] | Kd [5] |
| --- | --- | --- | --- | --- | --- |
| B1 | 0.213 µM | > 100 µM | 0.095 µM | 17.1 µM | 25.9 µM |
| B2 | – | – | 3.38 µM | – | – |
| B3 | – | – | 0.884 µM | – | – |
| B4 | – | – | 24.1 µM | – | – |
